Assay results reported in patent publication US20250043302A1, “MUTATED HYDROXYPHENYLPYRUVATE DIOXYGENASE POLYPEPTIDE, AND CODING GENE AND USE THEREOF” (BEIJING DABEINONG BIOTECHNOLOGY CO., LTD., priority 2021, published 2025).

B1: MsHPPDm-F372A-F383W-02: nucleotide sequence encoding Medicago sativa HPPD with F372A+F383W; vector DBN11737 (nucleic acid)
DNA: ATGGCTATTGAAACCGAAACACAAACTCAGACTGGATTTAAACTGGTAGGGTTCAAGAATTTCGTTAGGGCTAATCCCAAGTCTGATCGTTTTAAGGTCAAGAGGTTCCACCACGTGGAGTTCTGGTGCACTGATGCAACCAACACGGCGCGGCGTTTTTCACATGGTCTTGGAATGCCTATTGTTGCAAAATCCGACCTCTCCACGGGGAACCAAACACACGCCTCTTACCTGCTACGGAGTGGTGACTTGAACTTCCTCTTCAGCGCCGCCTACTCACCCTCCATATCGTTGTCTTCACCATCCTCGACCGCAGCAATTCCTACATTTTCTGCGAGCAACTGCTTCTCTTTCTCTGCCAGTCATGGCCTCGCCGTCAGAGCAGTGGCCGTTGAAGTAGAGGATGCTGAACTTGCTTTTACAACTTCAGTGAATAATGGAGCAATACCGAGCAGTCCGCCGGTCATACTTGAGAATCATGTGAAGCTAGCGGAGGTGAGGCTTTATGGGGACGTCGTTTTAAGATATGTCAGCTACAATGATCCAAACCCCAATCAAAATCCAAATTTGTTGTTCCTTCCTGGCTTCGAGCGTGTTAGCGATGAATCTTCAAACTCTTCACTGGATTTTGGAATCAGACGGTTGGATCATGCTGTTGGAAATGTTCCTGAACTCTCGAGCGCTGTGAAATATGTGAAGGACTTCACCGGTTTTCATGAATTTGCTGAGTTTACTGCAGAAGATGTGGGTACATCAGAGAGTGGCTTGAATTCCGTGGTGCTCGCCAACAACGAGGAGACTGTACTCTTACCAATGAATGAGCCAGTCTATGGCACCAAGCGTAAATCTCAAATTGAGACATATTTGGAGCACAATGAAGGAGCTGGACTTCAGCATCTCGCGCTGAAGAGTGAGGACATCTTCCGCACCCTACGGGAGATGAGGAAAAGAAGTGGTGTTGGTGGGTTTGAATTCATGCCATCACCTCCTGTCACCTACTACAGGAACCTGAAGAACAGAGTTGGTGATGTACTTTCGGACGAGCAGATAAAGGAATGTGAAGAGTTGGGGATTTTGGTTGATAGAGATGATCAAGGAACACTCCTGCAGATTGCCACAAAACCAATTGGCGACCGCCCCACTATCTGGATAGAGATCATCCAGAGGGTGGGGTGCATGCTCAAAGACGAGGAAGGGAAGGAGTACCAGAAGGGCGGCTGTGGTGGTTTTGGGAAAGGAAACTTTTCTGAGTTATTCAAATCAATTGAAGAGTATGAGAAGACGCTTGAAACGCGTCGCACTGCTTGA
modifications: MsHPPDm-F372A-F383W-02 Nucleotide Sequence
notes: vector DBN11737
B2: MsHPPDm-F372A-02: nucleotide sequence encoding Medicago sativa HPPD with F372A; vector DBN11735 (nucleic acid)
DNA: ATGGCTATTGAAACCGAAACACAAACTCAGACTGGATTTAAACTGGTAGGGTTCAAGAATTTCGTTAGGGCTAATCCCAAGTCTGATCGTTTTAAGGTCAAGAGGTTCCACCACGTGGAGTTCTGGTGCACTGATGCAACCAACACGGCGCGGCGTTTTTCACATGGTCTTGGAATGCCTATTGTTGCAAAATCCGACCTCTCCACGGGGAACCAAACACACGCCTCTTACCTGCTACGGAGTGGTGACTTGAACTTCCTCTTCAGCGCCGCCTACTCACCCTCCATATCGTTGTCTTCACCATCCTCGACCGCAGCAATTCCTACATTTTCTGCGAGCAACTGCTTCTCTTTCTCTGCCAGTCATGGCCTCGCCGTCAGAGCAGTGGCCGTTGAAGTAGAGGATGCTGAACTTGCTTTTACAACTTCAGTGAATAATGGAGCAATACCGAGCAGTCCGCCGGTCATACTTGAGAATCATGTGAAGCTAGCGGAGGTGAGGCTTTATGGGGACGTCGTTTTAAGATATGTCAGCTACAATGATCCAAACCCCAATCAAAATCCAAATTTGTTGTTCCTTCCTGGCTTCGAGCGTGTTAGCGATGAATCTTCAAACTCTTCACTGGATTTTGGAATCAGACGGTTGGATCATGCTGTTGGAAATGTTCCTGAACTCTCGAGCGCTGTGAAATATGTGAAGGACTTCACCGGTTTTCATGAATTTGCTGAGTTTACTGCAGAAGATGTGGGTACATCAGAGAGTGGCTTGAATTCCGTGGTGCTCGCCAACAACGAGGAGACTGTACTCTTACCAATGAATGAGCCAGTCTATGGCACCAAGCGTAAATCTCAAATTGAGACATATTTGGAGCACAATGAAGGAGCTGGACTTCAGCATCTCGCGCTGAAGAGTGAGGACATCTTCCGCACCCTACGGGAGATGAGGAAAAGAAGTGGTGTTGGTGGGTTTGAATTCATGCCATCACCTCCTGTCACCTACTACAGGAACCTGAAGAACAGAGTTGGTGATGTACTTTCGGACGAGCAGATAAAGGAATGTGAAGAGTTGGGGATTTTGGTTGATAGAGATGATCAAGGAACACTCCTGCAGATTGCCACAAAACCAATTGGCGACCGCCCCACTATCTTCATAGAGATCATCCAGAGGGTGGGGTGCATGCTCAAAGACGAGGAAGGGAAGGAGTACCAGAAGGGCGGCTGTGGTGGTTTTGGGAAAGGAAACTTTTCTGAGTTATTCAAATCAATTGAAGAGTATGAGAAGACGCTTGAAACGCGTCGCACTGCTTGA
modifications: MsHPPDm-F372A-02 Nucleotide Sequence
notes: vector DBN11735

Experiments:
Type in all cases: in vivo
[1] = system: Arabidopsis thaliana T1 plants; assay: Topramezone tolerance of transgenic Arabidopsis thaliana T1 plants (spray, bleached leaf area grade, damage score); conditions: 7 DAT, Table 4; for Classification and statistics of the grade of pesticide damage: Grade 0 / Classification and statistics of the grade of pesticide damage: Grade 1 / Classification and statistics of the grade of pesticide damage: Grade 2 / Classification and statistics of the grade of pesticide damage: Grade 3: number of plants; for Scores: pesticide damage score 0-100
Procedure, shortened: (§1)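 Damage was assessed by bleaching grade (0 none; 1 <50%; 2 >50%; 3 100% of leaf area) one week after spraying. Sprays on 18-day-old T1 and wild-type plants used field-rate multiples: topramezone 25–200, isoxaflutole 35–280, mesotrione 52.5–420 g ai/ha.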

[2] = system: Arabidopsis thaliana T1 plants; assay: Isoxaflutole tolerance of transgenic Arabidopsis thaliana T1 plants (spray, bleached leaf area grade, damage score); parameters: Scores (pesticide damage): scale not given here; conditions: spray, Arabidopsis thaliana T1 plants; for Classification and statistics of the grade of pesticide damage: Grade 0 (number of plants) / Classification and statistics of the grade of pesticide damage: Grade 1 (number of plants) / Classification and statistics of the grade of pesticide damage: Grade 2 (number of plants) / Classification and statistics of the grade of pesticide damage: Grade 3 (number of plants): 16 plants
Procedure, shortened: as §1

[3] = system: Arabidopsis thaliana T1 plants; assay: Mesotrione tolerance of transgenic Arabidopsis thaliana T1 plants (spray, bleached leaf area grade, damage score); parameters: Scores: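 damage score 0-100 computed as Σ(N×S)/(T×M)×100 over grades 0-3 with higher meaning more damage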; conditions: Arabidopsis thaliana T1 plants; for Grade 0 (classification and statistics of the grade of pesticide damage; number of plants) / Grade 1 (classification and statistics of the grade of pesticide damage; number of plants) / Grade 2 (classification and statistics of the grade of pesticide damage; number of plants) / Grade 3 (classification and statistics of the grade of pesticide damage; number of plants): 16 plants
Procedure, shortened: as §1

[4] = isoxaflutole 35 g ai/ha (0.5x field concentration)
[5] = isoxaflutole 70 g ai/ha (1x field concentration)

| Molecule | Classification and statistics of the grade of pesticide damage: Grade 0 ([1]; topramezone 25 g ai/ha (1×)) | Classification and statistics of the grade of pesticide damage: Grade 1 ([1]; topramezone 25 g ai/ha (1×)) | Classification and statistics of the grade of pesticide damage: Grade 2 ([1]; topramezone 25 g ai/ha (1×)) | Classification and statistics of the grade of pesticide damage: Grade 3 ([1]; topramezone 25 g ai/ha (1×)) | Classification and statistics of the grade of pesticide damage: Grade 0 ([1]; topramezone 100 g ai/ha (4×)) | Classification and statistics of the grade of pesticide damage: Grade 1 ([1]; topramezone 100 g ai/ha (4×)) | Classification and statistics of the grade of pesticide damage: Grade 2 ([1]; topramezone 100 g ai/ha (4×)) | Classification and statistics of the grade of pesticide damage: Grade 3 ([1]; topramezone 100 g ai/ha (4×)) | Scores ([1]; topramezone 25 g ai/ha (1×)) | Scores ([1]; topramezone 100 g ai/ha (4×)) | Resistance evaluation ([1]; topramezone 25 g ai/ha (1×)) | Resistance evaluation ([1]; topramezone 100 g ai/ha (4×)) | Resistance evaluation [2, 4] | Scores (pesticide damage) [2, 4] | Classification and statistics of the grade of pesticide damage: Grade 0 (number of plants) [2, 4] | Classification and statistics of the grade of pesticide damage: Grade 1 (number of plants) [2, 4] | Classification and statistics of the grade of pesticide damage: Grade 2 (number of plants) [2, 4] | Classification and statistics of the grade of pesticide damage: Grade 3 (number of plants) [2, 4] | Resistance evaluation [2, 5] | Scores (pesticide damage) [2, 5] | other results |
| --- | --- | --- | --- | --- | --- | --- | --- | --- | --- | --- | --- | --- | --- | --- | --- | --- | --- | --- | --- | --- | --- |
| B1 | 6 | 9 | 1 | 0 | 0 | 8 | 6 | 2 | 23 | 54 | moderately | poorly | Moderately | 27 | 5 | 9 | 2 | 0 | Moderately | 33 | Classification and statistics of the grade of pesticide damage: Grade 0 (number of plants) [2, 5]: 2; Classification and statistics of the grade of pesticide damage: Grade 1 (number of plants) [2, 5]: 12; Classification and statistics of the grade of pesticide damage: Grade 2 (number of plants) [2, 5]: 2; Classification and statistics of the grade of pesticide damage: Grade 3 (number of plants) [2, 5]: 0; Resistance evaluation ([3]; mesotrione 52.5 g ai/ha): Moderately; Scores ([3]; mesotrione 52.5 g ai/ha): 33; Grade 0 (classification and statistics of the grade of pesticide damage; number of plants) ([3]; mesotrione 52.5 g ai/ha): 3; Grade 1 (classification and statistics of the grade of pesticide damage; number of plants) ([3]; mesotrione 52.5 g ai/ha): 10; Grade 2 (classification and statistics of the grade of pesticide damage; number of plants) ([3]; mesotrione 52.5 g ai/ha): 3; Grade 3 (classification and statistics of the grade of pesticide damage; number of plants) ([3]; mesotrione 52.5 g ai/ha): 0; Resistance evaluation ([3]; mesotrione 105 g ai/ha): Non-resistant; Scores ([3]; mesotrione 105 g ai/ha): 79; Grade 0 (classification and statistics of the grade of pesticide damage; number of plants) ([3]; mesotrione 105 g ai/ha): 0; Grade 1 (classification and statistics of the grade of pesticide damage; number of plants) ([3]; mesotrione 105 g ai/ha): 0; Grade 2 (classification and statistics of the grade of pesticide damage; number of plants) ([3]; mesotrione 105 g ai/ha): 10; Grade 3 (classification and statistics of the grade of pesticide damage; number of plants) ([3]; mesotrione 105 g ai/ha): 6 |
| B2 | 5 | 7 | 4 | 0 | 0 | 4 | 9 | 3 | 31 | 65 | moderately | poorly | Poorly | 54 | 0 | 6 | 10 | 0 | Non-resistant | 100 | Classification and statistics of the grade of pesticide damage: Grade 0 (number of plants) [2, 5]: 0; Classification and statistics of the grade of pesticide damage: Grade 1 (number of plants) [2, 5]: 0; Classification and statistics of the grade of pesticide damage: Grade 2 (number of plants) [2, 5]: 0; Classification and statistics of the grade of pesticide damage: Grade 3 (number of plants) [2, 5]: 16; Resistance evaluation ([3]; mesotrione 52.5 g ai/ha): Poorly resistant; Scores ([3]; mesotrione 52.5 g ai/ha): 52; Grade 0 (classification and statistics of the grade of pesticide damage; number of plants) ([3]; mesotrione 52.5 g ai/ha): 0; Grade 1 (classification and statistics of the grade of pesticide damage; number of plants) ([3]; mesotrione 52.5 g ai/ha): 9; Grade 2 (classification and statistics of the grade of pesticide damage; number of plants) ([3]; mesotrione 52.5 g ai/ha): 5; Grade 3 (classification and statistics of the grade of pesticide damage; number of plants) ([3]; mesotrione 52.5 g ai/ha): 2; Resistance evaluation ([3]; mesotrione 105 g ai/ha): Non-resistant; Scores ([3]; mesotrione 105 g ai/ha): 100; Grade 0 (classification and statistics of the grade of pesticide damage; number of plants) ([3]; mesotrione 105 g ai/ha): 0; Grade 1 (classification and statistics of the grade of pesticide damage; number of plants) ([3]; mesotrione 105 g ai/ha): 0; Grade 2 (classification and statistics of the grade of pesticide damage; number of plants) ([3]; mesotrione 105 g ai/ha): 0; Grade 3 (classification and statistics of the grade of pesticide damage; number of plants) ([3]; mesotrione 105 g ai/ha): 16 |
